Literature values in PMC10018202.

Columns and labels:
Cys34 = Cys34 (UniProt position 58, QYLQQCPFEDH); experiment: chemical modification (thiol-disulfide exchange with 2,2'-dithiodipyridine, per the title of the cited reference); the article calls it 'spectroscopic measurements'; conditions: not stated (the article notes the pKa changes by 1.5 pH units depending on the ionic strength of the buffer)
Cys283 = Cys283 (UniProt position 283, GYILTCPSNLG)

Row | Substance | pKa (Cys34) | pKa (Cys283)
1 | Serum albumin (HSA) (Homo sapiens) | around 7 | 
2 | Creatine kinase (the quoted measurement is most likely on human muscle-type CK; the article's docking target is brain-type CK) (Homo sapiens) |  | around 5.7 and ∼5.6
